Reference: US20250144178A1, “PHARMACEUTICAL COMPOSITION FOR CANCER TREATMENT COMPRISING FUSION PROTEIN INCLUDING IL-12 AND ANTI-FAP ANTIBODY AND ANTICANCER AGENT” (KANAPH THERAPEUTICS INC., priority 2022, published 2025)

Key:
[1] = system: CT26 colorectal cancer with mouse FAP overexpressing NIH-3T3 cells; experiment: Tumor growth inhibition, CT26 co-injected with mouse FAP overexpressing NIH-3T3; assay type: in vivo, BALB/c mice
Method: Specifically, the mouse FAP overexpressing NIH-3T3 cells and the CT26 cells in culture were resuspended in Hanks' Balanced salt solution (HBSS, Gibco) at a concentration of 1×10^6 cells/50 μl, respectively, and the cells were mixed in a 1:1 ratio, and then 100 μl per each mouse was transplanted into the subcutaneous region of the right flank of 6-week-old BALB/c mice using a 1 cc syringe (25G) to obtain an FAP-expressing fibroblast co-injection animal model. The tumor size was measured using a digital vernier caliper by measuring the short axis and long axis of the tumor, and the tumor size was measured twice a week using the calculation formula of (short axis, mm) 2×(long axis, mm)×0.5.
Next, for drug efficacy evaluation, when the size of the tumor reached 100 mm^3, the mice were randomly divided into groups. Each experimental group consisted of 10 animals, and as a control, each 100 μl of 50 μg of T1.24m was intraperitoneally administered three times at an interval of 3 days. In the test group, each 100 μl of 10 μg and 50 μg of T1.02m and 50 μg of T1.01m, respectively, were intraperitoneally administered three times at an interval of 3 days to evaluate the tumor growth inhibitory ability.

[2] = system: 4T1 tumor; experiment: Tumor re-challenge in mice with complete response, 4T1 tumor; assay type: in vivo, BALB/c mice; settings: mice with complete response after T1.01m, left flank, FIG. 27
Method: (§1) In order to evaluate whether tumor recurrence may be inhibited by inducing long-term immune response after fusion protein treatment, tumor re-challenge was performed in subjects in which complete response was achieved by administration of T1.01m in a tumor model transplanted with CT26 cells overexpressing FAP. BALB/c mice without a treatment history were used as control mice.
(§2) 4T1 cells were subcutaneously injected into the left flank and CT26 cells were subcutaneously injected into the right flank of control mice and mice in which complete response was achieved by administration of T1.01m, to obtain a tumor recurrence model.
(§3) CT26 cells and 4T1 cells were suspended in Hanks' Balanced salt solution (HBSS, Gibco) at a concentration of 1×10^6 cells/100 μl, respectively, and CT26 cells were transplanted into the subcutaneous region of the right flank of the mice using a 1 cc syringe (25G). Tumor formation and growth were evaluated by subcutaneous transplantation of 4T1 cells into the left flank of the same mice. Nine animals were used for the control group, and seven animals were used for the test group.

[3] = system: CT26 tumor; experiment: Tumor re-challenge in mice with complete response, CT26 tumor; assay type: in vivo, BALB/c mice; settings: mice with complete response after T1.01m, right flank, FIG. 26
Method: as §1, §2, §3

[4] = system: FAP-overexpressing mouse colorectal cancer CT26; experiment: Tumor growth inhibition by IL-12 mutation, FAP-overexpressing CT26, single i.v. dose; assay type: in vivo, BALB/c mice; settings: 10 μg i.v. once, 15 days after administration, control PBS, FIG. 28
Method: In order to evaluate the change in IL-12 activity according to the presence and extent of amino acid mutation, FAP-overexpressing mouse colorectal cancer CT26 was prepared by resuspending in PBS at a concentration of 5×10^5 cells/100 μl, and the tumor growth inhibitory ability was evaluated in a tumor animal model prepared by transplantation of the cells into 5-week-old female BALB/c mice.
Specifically, when the size of the tumor in the model reached 100 mm^3, the mice were randomly divided into groups. 100 μl of phosphate buffered saline (PBS) was administered once via tail vein injection of the control, and each of T1.01m, T1.02m and T1.03m was intravenously administered once at a dose of 10 μg.

[5] = system: mouse FAP overexpressing B16F10 melanoma; experiment: Melanoma model, mouse FAP overexpressing B16F10; assay type: in vivo, C57BL/6J mice; settings: 10 μg and 100 μg i.v. once, control PBS, FIG. 30
Method: In order to identify the anticancer effect through immune activation of the fusion protein, mouse FAP was overexpressed in the mouse melanoma cell line B16F10, which is known to have little immune cell infiltration, and then transplanted into C57BL/6J mice, and the tumor growth inhibitory ability was evaluated.
Specifically, the cells in culture were resuspended in Hanks' Balanced salt solution (HBSS, Gibco), and then 100 μl of 1×10^6 tumor cells per each mouse were transplanted into the subcutaneous region of the left the dorsal flank side of 6-week-old C57BL/6J mice.
Next, for drug efficacy evaluation, when the size of the tumor reached 70 to 100 mm^3, the mice were randomly divided into groups. As the control, PBS was administered, and as the test group, T1.03m was intravenously administered once at a dose of 10 μg and 100 μg.

B1: T1.01m: K&H bispecific: anti-mu FAP/mu IL-12, mu IgG2a DANG (seq18, seq19, seq20) (antibody)
heavy: QVQLQQSGAELARPGASVNLSCKASGYTFTNNGINWLKQRTGQGLEWIGEIYPRSTNTLYNEKFKGKATLTADRSSNTAYMELRSLTSEDSAVYFCARTLTAPFAFWGQGTLVTVSAAKTTAPSVYPLAPVCGDTTGSSVTLGCLVKGYFPEPVTLTWNSGSLSSGVHTFPAVLQSDLYTLSSSVTVTSSTWPSQSITCNVAHPASSTKVDKKIEPRGPTIKPCPPCKCPAPNLLGGPSVFIFPPKIKDVLMISLSPIVTCVVVAVSEDDPDVQISWFVNNVEVHTAQTQTHREDYGSTLRVVSALPIQHQDWMSGKEFKCKVNNKDLPAPIERTISKPKGSVRAPQVYVLPPPEEEMTKKQVTLWCMVTDFMPEDIYVEWTNNGKTELNYKNTEPVLDSDGSYFMYSKLRVEKKNWVERNSYSCSVVHEGLHNHHTTKSFSRTPGK
light: QIVLTQSPAIMSASPGEKVTMTCSASSGVNFMHWYQQKSGTSPKRWIFDTSKLASGVPARFSGSGSGTSYSLTISSMEAEDAATYYCQQWSFNPPTFGGGTKLEIKRADAAPTVSIFPPSSEQLTSGGASVVCFLNNFYPKDINVKWKIDGSERQNGVLNSWTDQDSKDSTYSMSSTLTLTKDEYERHNSYTCEATHKTSTSPIVKSFNRNEC
chain: MWELEKDVYVVEVDWTPDAPGETVNLTCDTPEEDDITWTSDQRHGVIGSGKTLTITVKEFLDAGQYTCHKGGETLSHSHLLLHKKENGIWSTEILKNFKNKTFLKCEAPNYSGRFTCSWLVQRNMDLKFNIKSSSSSPDSRAVTCGMASLSAEKVTLDQRDYEKYSVSCQEDVTCPTAEETLPIELALEARQQNKYENYSTSFFIRDIIKPDPPKNLQMKPLKNSQVEVSWEYPDSWSTPHSYFSLKFFVRIQRKKEKMKETEEGCNQKGAFLVEKTSTEVQCKGGNVCVQAQDRYYNSSCSKWACVPCRVRSGGGGSGGGGSGGGGSRVIPVSGPARCLSQSRNLLKTTDDMVKTAREKLKHYSCTAEDIDHEDITRDQTSTLKTCLPLELHKNESCLATRETSSTTRGSCLPPQKTSLMMTLCLGSIYEDLKMYQTEFQAINAALQNHNHQQIILDKGMLVAIDELMQSLNHNGETLRQKPPVGEADPYRVKMKLCILLHAFSTRVVTINRVMGYLSSAGGGGSGGGGSEPRGPTIKPCPPCKCPAPNLLGGPSVFIFPPKIKDVLMISLSPIVTCVVVAVSEDDPDVQISWFVNNVEVHTAQTQTHREDYGSTLRVVSALPIQHQDWMSGKEFKCKVNNKDLPAPIERTISKPKGSVRAPQVYVLPPPEEEMTKKQVTLSCAVTDFMPEDIYVEWTNNGKTELNYKNTEPVLDSDGSYFMVSKLRVEKKNWVERNSYSCSVVHEGLHNHHTTKSFSRTPGK
[1]; 50 μg i.p. three times at an interval of 3 days, 14th day, control 50 μg T1.24m
  tumor growth inhibitory ability compared to control: 91.9%
[1]; 24th day after administration, FIG. 24
  complete response: subjects in complete response were observed
[2]
  growth of re-challenged 4T1 tumor: the 4T1 tumor grew
[3]
  growth of re-challenged CT26 tumor: the growth of the CT26 tumor was inhibited
[4]
  tumor growth inhibitory ability compared to the control: excellent tumor growth inhibitory ability
[5]
  tumor growth inhibitory ability compared to the control: high tumor growth inhibitory ability
